2 molecules from patent US20210403578A1 (published 2021) can be followed below.

In test [1] the target is Fz27C49. Put plainly: yeast surface titration.
The target of test [2] is Fz27C3. Put plainly: yeast surface titration.
In test [3] the target is Fzd7CRD. Put plainly: SPR. For orientation: In SPR one partner is held on a chip, and binding of the other changes the refractive index at the surface.
Test [4] addresses Fzd5CRD. The test is described as follows: SPR.
For test [5], the target named is Fzd1CRD. The test is described as follows: SPR.
The target of test [6] is T1, Fz8-CRD (UniProt Q9H461 32-151, fluorescence-conjugated).
T1 chain: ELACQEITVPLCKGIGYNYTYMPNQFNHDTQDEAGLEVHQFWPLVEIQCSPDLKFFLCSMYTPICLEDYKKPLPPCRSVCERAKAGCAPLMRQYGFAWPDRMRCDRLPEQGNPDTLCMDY
The test is described as follows: SPR.

B1: Fzd8-CRD (receptor)
chain: ELACQEITVPLCKGIGYNYTYMPNQFNHDTQDEAGLEVHQFWPLVEIQCSPDLKFFLCSMYTPICLEDYKKPLPPCRSVCERAKAGCAPLMRQYGFAWPDRMRCDRLPEQGNPDTLCMDY
modifications: fluorescence-conjugated
The term Kd denotes the constant that tells how readily two partners part at equilibrium. Low values mean higher affinity, high ones lower affinity. Consider B1, for which the Kd in test [1] was around 0.092 nM; in test [2], around 0.122 nM.

B2: scFv(Onco)-DKK1c (other)
chain: MLLVNQSHQGFNKEHTSKMVSAIVLYVLLAAAAHSAFAADPIELTQPPSVSVAPGQTARISCSGDNIGSFYVHWYQQKPGQAPVLVIYDKSNRPSGIPERFSGSNSGNTATLTISGTQAEDEADYYCQSYANTLSLVFGGGTKLTVLGTTAASGSSGGSSSGAEVQLVESGGGLVQPGGSLRLSCAASGFTFSHYTLSWVRQAPGKGLEWVSVISGDGSYTYYADSVKGRFTISSDNSKNTLYLQMNSLRAEDTAVYYCARNFIKYVFANWGQGTLVTVSGSGSGKMYHTKGQEGSVCLRSSDCASGLCCARHFWSKICKPVLKEGQVCTKHRRKGSHGLEIFQRCYCGEGLSCRIQKDHHQASNSSRLHTCQRHHHHHHH
With B2, the Kd in test [3] was determined as 0.82 nM; in test [4], 0.75 nM; in test [5] it was 1.1 nM; in test [6], 1.4 nM.
